According to the DeepSol protein solubility set:

Assay: soluble on expression in E. coli; label from the status in PepcDB or PDB records

Row | Sequence | soluble on expression in E. coli
1 | GPGSMSSIEELKVVRLFRALNTMIQLCHDRGYVIRHPSAIAEAVQNPELYNNEEGLDHDWFLRHFVISPDRAARSIRAKQRGDGSSRSGPRREAKNEEDGGDADKPGEYDVAADEDEALRRAANGEWVCMRNAMRLTCSVDPRRATLASSVLTGAPTNKAPSSAPAVTAEPKDDDGDVPYAVAAAAVDAKSKEKAAKNALMVFFSGSPKLSMKEVHSFREKALKKKASSMIVVTNKIDPGVRMDVQELSGRMDEATGAELLSIQVFEEEALAFNVVRHETVPRHVALTPAEAEAFLAERKLNVAQLPRMQESDPLVQYLGLQRGSIVHITREGKQSGPYSMYRHVI | soluble
2 | MGSSHHHHHHSSGLVPRGSHMRQLTEEETKVVFEKLAGYIGRNISFLVDNKELPHVFRLQKDRVYYVPDHVAKLATSVARPNLMSLGICLGKFTKTGKFRLHITSLTVLAKHAKYKIWIKPNGEMPFLYGNHVLKAHVGKMSDDIPEHAGVIVFAMNDVPLGFGVSAKSTSESRNMQPTGIVAFRQADIGEYLRDEDTLFT | soluble
3 | MNSYVKWIFVVLLICSLTAFVEKDKPTGGLSEGDVAPDFKIESASNGQPAFKLGNLKGKYVLLSFWASYDAQSRMQNVSLSNVLRSSRNVEMVSVSFDEYQSIFKETVRKDQIVTPTCFVETEGEDSRLFKKYRLNRGFTNYLLDGNGVIIAKNISAADLSAYVSEIG | not soluble
4 | MGGGGHGGGITYKGVTVHTPKTWHTVTGKGLCAVMWFWILYRAKQDGPVVMGWRHPWDGHGDHGHGDHH | not soluble
5 | MEAKTNTFLLVAERWWNVKKTSVTEDYADDIWRSLERDIFPAIGDISITEIKAHTLVKAVQPVQARGALETVRRLCQRINEVMIYAQNTGLIDAVPSVNIGKAFELEHHHHHH | not soluble
6 | QELPTDLSEVFVDFSKEPLASGSVAQTHRARLLSGQEVIIKIQRPGIDDIVKEDIQLLIKLARHIPKHFISMVDVQEVLENLCETLIKELDFKNEAEAMKRFRANNKRVVCLGVPEVY | not soluble
7 | MFDPREKIALFIDGANLYAASKSLGFDIDYRKLLKAFQKRGYLLRAYYYTALIEDQEYSSIRPLIDWLDYNGYKVVTKPAKEFTDSLGRRKIKGNMDIELAIDAMEQSESVDHLVIFSGDGDFTTLVEALQRKGRKVSVVSTMSTQPPMIADDLRRQADHFIDLATLRGEIGREPSERVQRPVEPVADDVEL | not soluble
8 | MAFLGLFSLLVLQSMATGATFPEEAIADLSVNMYNRLRATGEDENILFSPLSIALAMGMMELGAQGSTQEEIRHSMGYDSLKNGEEFSFLKEFSNMVTAKESQYVMKIANSLFVQNGFHVNEEFLQMMKKYFNAAVNHVDFSQNVAVANYINKWVENNTNNLVKDLVSPRDFDAATYLALINAVYFKGNWKSQFRPENTRTFSFTKDDESEVQIPMMYQQGEFYYGEFSDGSNEAGGIYQVLEIPYEGDEISMMLVLSRQEVPLATLEPLVKAQLVEEWANSVKKQKVEVYLPRFTVEQEIDLKDVLKALGITEIFIKDANLTGLYDNKEIFLSKAIHKSFLEVNEEGSEAAAVSGMIAISRMAVLYPQVIVDHPFFFLIRNRRTGTILFMGRVMHPETMNTSGHDFEEL | soluble
9 | MLSSKTFLNLVRTSRCRMSSSFAPKPAERTAQHSASIWVEFTTLAAETKAVNLGQGFPDSPAPKFVTDLLENLSKHPELTAAHQYTRGYGHPMLVDILAKMYSHFYNVQVDPMNEVLVTVGAYLSLYYAFLGWVNKGDEVLIIEPAYDCYYPQVKFAGGVPVPVVMNLAEGATSASQFTIDFADMESKINEKTKMLVINNPHNPTGKLFSRHELEKLAEIAKKHNLIVIADEVYEFHVWDKNDMVRFASLPGMYERTISIGSAGKAFSVTGWKLGWAVGPKQLLEPLKAIHQNCVFTCSTPTQMAIAEAFRLDWPKFLSDPENSYLATGLSGELRAKRDKLAKMLEEGNFRPIIPDAGYFMLADYVHLKEGINLPTEEDPDDFVFSRWLCREKKLAVIPPSAFYSARDNKLKNSNMVRLCYFKKDETLDAAEEILKKLGKQ | not soluble
10 | MSGMWLWASVSPESTGIKMSESFAELFEESLKTLNLQPGAIITGIVVDIDGDWVTVHAGLKSEGVIPLEQFYNEAGELTIKVGDEVHVALDAVEDGFGETKLSREKAKRAECWIVLEAAFAAEEVVKGVINGKVKGGFTVDVNGIRAFLPGSLVDVRPVRDTTHLEGKELEFKVIKLDQKRNNVVVSRRSVLEAENSAEREALLETLQEGQQVKGIVKNLTDYGAFVDLGGIDGLLHITDMAWKRIKHPSEIVNVGDEVDVRVLKFDRERNRVSLGLKQMGEDPWVAITARYPEGTRVQARVTNLTDYGCFAELEEGVEGLVHVSEMDWTNKNIHPSKVVQVGDEVEVMVLDIDEERRRISLGIKQCKSNPWEDFSGQFNKGDKITGTIKSITDFGIFIGLDGGIDGLVHLSDISWNETGEEAVRRFKKGDELETVILSVDPERERISLGIKQLEDDPFSNFVAVNDKGAIVKGIVKEVDAKGAIVTLADDIEATLKASEISRDRVEDARNVLKEGEEIEAKIISVDRKSRVISLSIKSKDDAEEREAIQSLKNAPEAAADTTMAALLREAMAKQNLEHHHHHH | soluble
11 | MTRPPLPPFTAETAAEKVRLAENGWNNRSADVVTPAYSDDSRWRNRAEFVTGHDDIHAFLTRKWDKELDYRLIKELWAWSGNRIAVRYAYEWHDDSGNWFRSYGNENWEFDEDGRMSARHTSLNDLPITEDERLFHWPLGPRPDGHPGLTDLGLLEHHHHHH | not soluble
12 | MGHHHHHHSHMLENRDYTLIIDKSGSMATPDQKGGRNRWVTAQESTLALASKCEQFDPDGITLYVFSGRFKRYENVTSAKVNQIFQENDPSGTTDLAAVLKHATDDYFQRKGAGKTKPNGETILVVTDGEPDDRKAVMRVIIEASRRMDKDEELAISFIQVGSDAQATRFLKVLDDELQGAGAKFDICDTVTMEDMEDLSLSEVLLNAITD | soluble
13 | MSVEEAALALWAKSGNPFHPLLAHMLDTAAVALAVLRMEPPRTRALYAEDWGLPEEGALAWAAALVGLHDLGKASPVFQAGWEEGKERVQRAGLPFGELLDWVAHGVFTELFLRRLLKEKGLPERAANDLAAALGAHHGFPANAEEKSRARRHLRTEDPLWKEARRWLLEEVFRRLGAPLPPSQGNGEARPEAVLRVMALASFADWVASDPSLFPYGRDPRRGDYLKEALRLAQEALNRLGWPAFAKAQRREFGELFPYIPKPNALQESVPALLEGACTPVLLLVEAPMGMGKTEAALYAHHLLQAGLGHRGLYVALPTQATANGLFPRVRGFLERLGEGSRLELQLQHGTALLNPHYAGLLERAAPRQVGEEEEGGAVASAWFSARKRAMLAPYGVGTLDQALLGVLRVKHHFVRLWGLMNRVVVLDEVHAYDVYTSGLLQALLRWLRALGSSAVVMTATLPPSRRRALLEAWAGEEVEGQDLGPYPRVVLVGEGVKARSLPPAREVEVALEVLREVDVEPLAQRLKGALPGAVGAIVNTVDRAQDLYRALGEGTPLTLEELARRLGGISGGQAWEEVRQALPERGGEVVGKVLTDGTLVFLLHARFPAEERALRGSVVLALFGKGGPRPPRAILVATQVAEQSLDLDFDLLYTDLAPIDLLFQRSGRLHRHERPRPEEHARPRLLLGVPEDLDFGKPLYWDKVYEDYVLLATWRALSGRDRLRVPGDLEALLEEIYEGENPESFPEGLRERAKKSLKALQERRDREANTARRLSLSELDRLLAYWDEGALVAQERLEDDEEKAETQRLLTRLGDPSVAVVPLFRVGEGLFLDREGRRRAPLKGEVSREEAEALFRRAVRLSRFPLPQELLKEEPPPAWRKSGLLRGLRPLEVGRVFRSGERAFQVELDPELGVVYLPV | soluble
14 | GPGSMSHSSLKRAPEITPQAATDKDSILCRSAHAKPLSFTTAPRDSAMVKLDVTLLRFMEDEDFRVLTALEMAMRNHDVAPTALVERIAQLPHGGCRKRLNNLLKHKMIHHENTMYDGYAMKYGAYDYLALRTLSKRGTCTGVGHRIGCGKESDIILVRDEAGHECVLKLQRLGRCSFRSVARNRDYKGNGRARHGESWFYLSRLASQKEYSFMKMLYDEGFPVPKPIDQNRHALLMELVPGTLLNNITELGDASKVYRRALELMVKLAESGLIHGDFNEFNLMITDDQRVIMIDFPQMISINHPNASELFDRDVQNLANFFHRRFKVDTTWFPSLEKDVVRKNELDKQVYASGHFTRKQQEDLERLMLEGFQRGEKSDDEAGSQARDSDASDDDGDENALQRSDIGNADVDAGVAGKFMTIPGFARGGESDEEREDSSDDDASEGRLLDEAMGAARERRQGEFYAHNADRNANFFPDGKINEDHVKHQIRKSIRRKDNHDFNRHLHRNVQKGRQKQKIQRQLKSSNGGGFFD | not soluble
15 | MAKGDVITLNFETFVDSDTQVKVTRLTPTDVICHRNYFYQKCFTQDGKKLLFAGDFDGNRNYYLLNLETQQAVQLTEGKGDNTFGGFISTDERAFFYVKNELNLMKVDLETLEEQVIYTVDEEWKGYGTWVANSDCTKLVGIEILKRDWQPLTSWEKFAEFYHTNPTCRLIKVDIETGELEVIHQDTAWLGHPIYRPFDDSTVGFCHEGPHDLVDARMWLVNEDGSNVRKIKEHAEGESCTHEFWIPDGSAMAYVSYFKGQTDRVIYKANPETLENEEVMVMPPCSHLMSNFDGSLMVGDGCDAPVDVADADSYNIENDPFLYVLNTKAKSAQKLCKHSTSWDVLDGDRQITHPHPSFTPNDDGVLFTSDFEGVPAIYIADVPESYKHLEHHHHHH | soluble
16 | MNDEQQNSNQSENTKKPFFQSLFGRFFQGELKNREELVEVIRDSEQNDLIDQNTREMIEGVMEIAELRVRDIMIPRSQIIFIEDQQDLNTCLNTIIESAHSRFPVIADADDRDNIVGILHAKDLLKFLREDAEVFDLSSLLRPVVIVPESKRVDRMLKDFRSERFHMAIVVDEFGAVSGLVTIEDILEQIVGDIEDEFDEEEIADIRQLSRHTYAVRALTDIDDFNAQFNTDFDDEEVDTIGGLIMQTFGYLPKRGEEIILKNLQFKVTSADSRRLIQLRVTVPDEHLAEMNNVDEKSELEHHHHHH | not soluble
17 | MILPDRKQILDRELIRRIADTTISGSGHSDGLSEYASIRKAAFAFVESAVLGDQAYSPIENAELAFIVWILAALDENIITARTIIKARDTVEKQLRLVEHYEDLEEFGSRLGIEISVFGEQIGKDHLYRIGVADFATYASRVTGSKYRLSNQIVREGYVYVDEDVMAKVLREAFVSFMFDTLDQIRKEDAIETIKSVLDDLEKIRESYRKAHNVRMIAGKGDASMFPPCMKEIIKNLESGVNVSHMGRLALASFLHKAGYSEDEIVPYFRNAPDFDENITRYQIKHISGEISGTEYTPPKCETMRSNHLCYMDDDPLCHREWMKHPLTYYEVKRRNRKIRLEHHHHHH | soluble
18 | MASGDITRYVITVTFHEDSLTEINELNNHLTRSGFLLTLTDDEGDVHELGTNTFGFVSAQSADEIKALVAGLAKSALDKDVDITVATWEAWSKNAQ | not soluble
19 | MLPKRNSGDNELYTNREKRKKMTSYIADSAVFIMGNCGVDSSLLITVPSVADELKSRDSMLRFDLAKEEGLRVEWPEPEMVKEVRKKAEQTRDSEELSKTDLEILAKALEHRETAVLLTDDYAVQNVAVQLGIQVKPIAQKKIKDVLIWQKQCTGCKKTFDKGDECPICGSPLKKKRKRKLKGKGYRESLEHHHHHH | not soluble
